Measured values from article PMC3713477.
pKd: −log10 of the molar value.

Tested on: 3E10 lupus anti-DNA autoantibody (mouse)
Test: EMSA
Conditions: 0-10 uM 3E10, 30 min at 4 C, buffer, salt and pH not given (ref 28)

Substance	pKd
blunt-end duplex DNA	6.40
duplex DNA with 3' single-stranded tail	6.70
duplex DNA with 5' single-stranded tail	6.70
duplex DNA with internal bubble (heterology)	6.40
duplex DNA with splayed single-stranded ends	6.70
single-stranded DNA	6.70
